Test results: article PMC1626583

Molecular target: FIII9–10 mutant Ala5, GST fusion protein (human)
Assay: SPR

Substance: integrin α5β1 (from UniProt P05556 21-798) (receptor)
- Kd: 63 nM
